The target in this assay is SARS-CoV-2 stabilized S trimer (HexaPro) (SARS-CoV-2). As to the kind of experiment: negative-stain EM.

This is an account of results in article PMC8642242.

Broadly, the stoichiometry N is the number of molecules, sites or subunits per partner or assembly. For the substance “SARS-CoV-2 stabilized S trimer (HexaPro) (domain or fragment)”, the stoichiometry N came out at 3.
